The text below walks through data of patent US20040077054A1.

For test [1], the target named is 16K hPRL binding sites in human placental membrane fractions (human). Nature of the test: Scatchard analysis, radioligand binding, first trimester human placental membranes.
For test [2] the target is unchanged. Briefly: Scatchard analysis, radioligand binding, third trimester human placental membranes.
Test [3] shares this target. Nature of the test: Scatchard analysis, radioligand binding, second trimester human placental membranes.
Test [4] has the same target. Nature of the test: specific binding of 100 pM 125I-16K rPRL (counts displaced by 400 nM 16K hPRL), first trimester placental membranes, n=4.
For test [5] the target is unchanged. Briefly: specific binding of 100 pM 125I-16K rPRL (counts displaced by 400 nM 16K hPRL), third trimester placental membranes, n=3.
The target is the same in test [6]. Nature of the test: specific binding of 100 pM 125I-16K rPRL (counts displaced by 400 nM 16K hPRL), second trimester placental membranes, n=3.

As to 16K N-terminal human prolactin (ligand), the maximal binding (Bmax) (fmol/µg protein) stood at 3.19 in test [1], 775 in test [2] and 630 in test [3].

On to “125I-16K rPRL (rat 16K prolactin, radioiodinated) (from UniProt P01237 30-174) (ligand)”, for which the maximal specific binding (cpm/5 µg protein) turned out to be 357 in test [4], 4040 in test [5] and 1780 in test [6].
